Experimental data taken from the DeepSol protein solubility set.

Assay: soluble on expression in E. coli; label from the status in PepcDB or PDB records

Sequence	soluble on expression in E. coli
MGSDKIHHHHHHVKELHESSTIISFKEHTDVNADSILELSFLKLQTKDSCLVKNVGLIRELNNCLLILDSANSNLYVFNKSGAFVNQIGQKGSGPGEYILLSSFFVDNNKNYIAAIDIAQDKVLYYNATDFSFLYERRLPFSTSCCLQLEDGNLLWNSREYTDSKLSDFYFVVTDSLFDIIDYKMNKEFKSGYTTGPSQMIYKVGTNVFAYTPFDLTIYRVGTSEIVPAHSFSFEGTDIPSLDFLNKTSNQGNSNYLYDLIQSDYISYYCVEETERDLFVCYMKNKEKYIGLYDKNTDRTYNYPIKIFQDQLKVGELNYFSIGSVDDYHVAPLDVLSLKDMAGNGYVFDDKLSELLTISNEEDNSILLFVRIKK	not soluble
GWSFEEQFKQVRQLYEINDDPKRKEFLDDLFSFMQKRGTPINRLPIMAKSVLDLYELYNLVIARGGLVDVINKKLWQEIIKGLHLPSSITSAAFTLRTQYMKYLYPYECEKKNLSTPAELQAAIDGNR	soluble
SIVKMLLFQETARHSRAEGEPGASHSGSKQDKVPSSEEGTGCDASVCEAAAATHCEKDVTVSDTENVSSSKNILSHDPDVGTDTMEKEEKTHHACQEMELKVDQSSESTNPTEAELSSETRQGLQLTSGDVGIDQFLRQGDEPKSVNSDASDPGSVRLEPLTPSEVLEYEATEILHDGDDPSANTSDTVSDQTGGSPGGSNPCRAETAVDLADGEERS	soluble
MNNNDLVAKLWKLCDNLRDGGVSYQNYVNELASLLFLKMCKETGQEADYLPEGYRWDDLKSRIGQDQMQFYRNLLVQLGSDEKKLVQAVFHNVSTTIEQPKQLTELVSYMDALDWYNGNHGKSRDDFGDMYEGLLQKNANETKSGAGQYFTPRPLIKTIIHLLKPQPREVVQDPAAGTAGFLIEADRYVKSQTNDLDDLDGDTQDFQIHRAFIGLELVPGTRRLALMNCLLHDIEGNLDHGGAIRLGNTLGSDGENLPKAHIVATNPPFGSAAGTNITRTFVHPTSNKQLCFMQHIIETLHPGGRAAVVVPDNVLFEGGKGTDIRRDLMDKCHLHTILRLPTGIFYAQGVKTNVLFFTKGTVTNPHQDKNCTDDVWVYDLRTNMPSFGKRTPFTEQHLQPFETVYGEDPHGLSPREEGEWSFNAEESEVADSEENKNTDQHQATSRWRKFSREWIRSAKSDSLDISWLKDKDSIDADSLPEPDVLAAEAMGELVQALGELDALMRELGAGDEADAQRQLLNEAFGEVKA	not soluble
MGSDKIHHHHHHMGRVLIIGAGGVGTVVAHKVAQNADVFTDIMIASRTKEKCDNIVKAIGNPNIKTAKVDADNVDELVALFNDFKPEMVINVALPYQDLTIMEACLKAGVNYLDTANYEPKDEAHFEYSWQWAYHDRFKEAGLTAILGCGFDPGVSGIYTAYAAKHYFDEIQYLDIVDCNAGNHHKAFATNFNPEINIREITQNGRYYENGQWVTTGPLEIHKDLTYPNIGPRDSYLLYHEELESLVKHFPTIKRARFWMTFGQEYLTHLRVIQNIGMARIDEVDYNGTKIVPLQFLKAVLPNPQDLGENYEGETSIGCRIRGIKDGKERTYYVYNNCSHQEAYKETGMQGVSYTTGVPAMIGAMMFFKGEWQRPGVNNVEEFNPDPFMEQLNKQGLPWHEVFDKDLEL	not soluble
GHMNAYLSDQPVRLSPLRDEQGNQPRFGLLLEPGRPGMHVGELPAQWLKGLARSHHLLLLRGFAAFADAESLTRYCHDFGEVMLWPFGAVLELVEQEGAEDHIFANNYVPLHWDGMYLETVPEFQVFHCVDAPGDSDGGRTTFSSTPAALQLADSSELELWRRASGRYQRSAAHYSSRSAAPIVERHPRREFPILRFCEPPVEGDASFINPSEFHYDGIAPEQRGELLASLRRCLYHPQAHYAHRWRSDDLVIADNLTLLHGREAFAHRAPRHLRRVHIHAEPALRNPHLQRD	soluble
VSAHVATLHPEPPFALCGPRGTLIARGVRTRYCDVRAAQAALRSGTAPILLGALPFDVSRPAALMVPDGVLRARKLPDWPTGPLPKVRVAAALPPPADYLTRIGRARDLLAAFDGPLHKVVLARAVQLTADAPLDARVLLRRLVVADPTAYGYLVDLTSAGNDDTGAALVGASPELLVARSGNRVMCKPFAGSAPRAADPKLDAANAAALASSAKNRHEHQLVVDTMRVALEPLCEDLTIPAQPQLNRTAAVWHLCTAITGRLRNISTTAIDLALALHPTPAVGGVPTKAATELIAELEGDRGFYAGAVGWCDGRGDGHWVVSIRCAQLSADRRAALAHAGGGIVAESDPDDELEETTTKFATILTALGVEQ	not soluble
MVEERIINLSHEIKNFVYPNDPEFIVKTKKNGKYSVSELNMGVHTGTHIDYPMHVGLTNEKFENVFGKGYCVSLENMNDFFKNAPKNLEILLIKTDFSKYWEDPEYFEKECDIENHVEKLISMNLKAVGIDCCSIGNFSVHEKLLSSKIKIIENMKNLEILENKTFKFFGFPLNIEKIDGSPINAVAFLLEHHHHHH	not soluble
GPGSMGCGDSKVRQGGPSRPPPPRGGPNSASTKVEGRANGPNEETSRVESKGSAPPEPEVNSTPVPTKPLGNGVDNSGAEKTNAPPTGSAPPAQNCSQQIELDDEGNALVLPKGEWVRTEGTPFYYSDAENLYFHPPSCQFYDPTNEMWYDPEQDEWYRDDDPAE	not soluble
MYQKKDRACRIRRKQCKLFGDWQKSVITQLKTIQDKNISIHKAFGCMIRLAANLFYAHSKIIHFMSEEAGEDAQRKAAEREAKKAEVRKRLEEAGNKKKAKKGFLTPERKKKLRKLLMVKAAEDLKRQQLLKEQERQKALADRTISLPNVDSIDDKGQLEKIYNDLWARLTQLEEEKYDINYVVSQTEAEINSLTIEVNDLRGKFVKPSLKKVSKYDNKFKKSGESKAGTKEDFRANLKIVKKDVMEAIVNVKKKDDKPDWSKKNKDAKAEDSAPAAVAPEAEPVAEEAEAEPEAEEEEGEEEEEE	not soluble
FDNLTDRLSRTLRNISGRGRLTEDNVKDTLREVRMALLEADVALPVVREFINRVKEKAVGHEVNKSLTPGQEFVKIVRNELVAAMGEENQTLNLAAQPPAVVLMAGLQGAGKTTSVGKLGKFLREKHKKKVLVVSADVYRPAAIKQLETLAEQVGVDFFPSDVGQKPVDIVNAALKEAKLKFYDVLLVDTAGRLHVDEAMMDEIKQVHASINPVETLFVVDAMTGQDAANTAKAFNEALPLTGVVLTKVDGDARGGAALSIRHITGKPIKFLGVGEKTEALEPFHPDRIASRILGMGDVLSLIEDIESKVDRAQAEKLASKLKKGDGFDLNDFLEQLRQMKNMGGMASLMGKLPGMGQIPDNVKSQMDDKVLVRMEAIINSMTMKERAKPEIIKGSRKRRIAAGCGMQVQDVNRLLKQFDDMQRMMKKMK	soluble
MIEEPVDDVIKHGPKTGTPETKTVEIPFETKREFNPKLQPGEERVKQEGQPGSKTITTPITVNPLTGEKVGEGQPTEEITKQPVDKIVEFGGEKPKDPKGPENPEKPSRPTHPSGPVNPNNPGLSKDRAKPNGPVHSMDKNDKVKKSKIAKESVANQEKKRAELPKTGLESTQKGLIFSSIIGIAGLMLLARRRKN	not soluble
MGSSHHHHHHSSGLVPRGSHMTRSKVAIIGGGPAGSVAGLTLHKLGHDVTIYERSAFPRYRVGESLLPGTMSILNRLGLQEKIDAQNYVKKPSATFLWGQDQAPWTFSFAAPKVAPWVFDHAVQVKREEFDKLLLDEARSRGITVHEETPVTDVDLSDPDRVVLTVRRGGESVTVESDFVIDAGGSGGPISRKLGVRQYDEFYRNFAVWSYFKLKDPFEGDLKGTTYSITFEDGWVWMIPIKDDLYSVGLVVDRSKSAEVREQGADAFYSSTLAKCAKAMDILGGAEQVDEVRIVQDWSYDTEVFSADRFFLCGDAACFTDPLFSQGVHLASQSAVSAAAAIDRITRHGDEKDAVHAWYNRTYREAYEQYHQFLASFYTFASFTEPDSEFWRKRRITESDDDRLTRKKWFESLAGNGPEDPSGTVASFRDRASTMIAIGRHQRPELSDDFSEAELNPARVRWISDLTKRLNSITRFKWTGGKAVLKQHYRVEPIGFRLEQREVLANGEGLDMAQYPMDDEARQIFQDLAEEEFGYKTLVKRLGAVGRQELSTQIVVRLMEAGLLTGYDAQGEKVFVQGRLHFGGVGVEYEV	soluble
MSNVLTEIDSQYPYMTKNEKKIAKFILNSPQKVIKMRSQDLASLLDISTSSVIRFSKKITDGGFHDLKINISKYVPKASSIYNVELMNNESTESLRTKLHTRTTRALNHANNELNDKTIDQICHCLKRSETIFIYGFGASFVVATDLYQKLSRIGLNIQLVQETHIFATLLATHNSNDSVILITNNGTQSEMQSMVKVIDDYHIPIITITSTRDNPVAQASNIVLTYGKTDENEMHMGATTSLFAQMFTIDILYYRYVALNYHASLDFITQSKMALDNYRKHLSNINFKH	not soluble
SREEFEQILQERNELKAKVFLLKEELAYFQRELLTDHRVPSLLLEAMKVAVRKQRKKIKAKMLGT	soluble
MTVPHIPRGPVMADIAAFRLTEEEKQRLLDPAVGGIILFRRNFQNIEQLKTLTAEIKALRTPELIIAVDHEGGRVQRFIEGFTRLPAMSTLGEIWDKDGASAAETAAGQVGRVLATELSACGIDLSFTPVLDLDWGNCPVIGNRSFHRNPEAVARLALALQKGLTKGGMKSCGKHFPGHGFVEGDSHLVLPEDWRSLSELETADLAPFRIMSREGMAAVMPAHVVYPQVDTKPAGFSEIWLKQILRRDIGFKGVIFSDDLTMEGACGAGGIKERARISFEAGCDIVLVCNRPDLVDELREDFRIPDNPTLAQRWQYMANTLGSAAAQAVMQTADFQAAQAFVAGLASPQDTAGGVKVGEAF	not soluble
DVPLTPSQFAKAKSENFDKKVILSNLNKPHALLWGPDNQIWLTERATGKILRVNPESGSVKTVFQVPEIVNDADGQNGLLGFAFHPDFKNNPYIYISGTFKNPKSTDKELPNQTIIRRYTYNKSTDTLEKPVDLLAGLPSSKDHQSGRLVIGPDQKIYYTIGDQGRNQLAYLFLPNQAQHTPTQQELNGKDYHTYMGKVLRLNLDGSIPKDNPSFNGVVSHIYTLGHRNPQGLAFTPNGKLLQSEQGPNSDDEINLIVKGGNYGWPNVAGYKDDSGYAYANYSAAANKSIKDLAQNGVKVAAGVPVTKESEWTGKNFVPPLKTLYTVQDTYNYNDPTCGEMTYICWPTVAPSSAYVYKGGKKAITGWENTLLVPSLKRGVIFRIKLDPTYSTTYDDAVPMFKSNNRYRDVIASPDGNVLYVLTDTAGNVQKDDGSVTNTLENPGSLIKFTYKAK	soluble
MGHHHHHHSHMLSSNGASKVANSEAMILDKNLESVNSPIEKSSVNYEPSNPSEKGSKKINLSSDQNKSVSESNNDDVMLISVESPNLTTPTTSNPTDTRKITSGNSSNSPNAEVMAVQKKLDSIIDLTKEGLSNCNTESPVSPLESHSKAASNSKETTPLAQNAVQVPESFEHLPPLPEPPAPLPELVDKTRDTLPPQKPELKVKRVFRPNGIALTWNITKINPKCAPVESYHLFLCHENSNNKLIWKKIGEIKALPLPMACTLSQFLASNRYYFTVQSKDIFGRYGPFCDIKSIPGFSENLT	soluble
MLILDYTKLKVTFMTMHHPNLQQHDRPQAISRSYLDIRHVVKQFGSFTALKEISLSIEKGEFVCFLGPSGCGKTTLLRAIAGLDLPTSGTIHQNQQAITFLPPEQRDFGIVFQSYALFPNLTVEENIAIGLRNQGMSVRDALEKVEQWLEMIGLATSAQKYPSQLSGGQQQRVALARALALSPGLLLLDEPLSALDAKVRTHLREEICQLQRKLGITTIMVTHDQEEALTMADRIVVMNHGVIEQVGTPQEIYQKPASRFVAEFVGTMNFIPVSMASSQQLRIAESLIALPKIENYTPCQGEQFDLAVRPENLELVTRYNEAIPVVIRHLEFLGAFYRVECVFQGERLAPPVYVDLPITQVQTMNLKAGDVRYLALRAGQLRAYRRKVMSTTPAATASCAYAA	not soluble
